B1: FC5-H62(T33C/A104C)-12F4(LC) hIgG1 (bispecific antibody)
heavy: not shown
light: DVQLVESGGGLVQPGGSLRLSCAASGFKITHYCTGWFRQAPGKEREFVSRITWGGDNTFYSNSVKGRFTISRDNSKNTVYLQMNSLRAEDTAVYYCAAGSTSTCTPLRVDYWGQGTLVTVSSGGGGSSYELTQPPSVSVSPGQTARITCSGEALPMQFAHWYQQRPGKAPVIVVYKDSERPSGVPERFSGSSSGTTATLTITGVQAEDEADYYCQSPDSTNTYEVFGGGTKLTVLSQPKAAPSVTLFPPSSEELQANKATLVCLISDFYPGAVTVAWKADSSPVKAGVETTTPSKQSNNKYAASSYLSLTPEQWKSHRSYSCQVTHEGSTVEKTVAPTECS
notes: also called hFC5.2-12F4(LC) hIgG1; FC5-H62(T33C/A104C)-12F4 hIgG1
B2: FC5-H62(T33C/A104C)-12F4(LC) hIgG2 SAA (bispecific antibody)
heavy: EVQLVESGGGLVEPGGSLRLSCAVSGFDFEKAWMSWVRQAPGQGLQWVARIKSTADGGTTSYAAPVEGRFIISRDDSRNMLYLQMNSLKTEDTAVYYCTSAHWGQGTLVTVSSASTKGPSVFPLAPCSRSTSESTAALGCLVKDYFPEPVTVSWNSGALTSGVHTFPAVLQSSGLYSLSSVVTVPSSNFGTQTYTCNVDHKPSNTKVDKTVERKSCVECPPCPAPPAAAPSVFLFPPKPKDTLMISRTPEVTCVVVDVSHEDPEVQFNWYVDGVEVHNAKTKPREEQFNSTFRVVSVLTVVHQDWLNGKEYKCKVSNKGLPAPIEKTISKTKGQPREPQVYTLPPSREEMTKNQVSLTCLVKGFYPSDIAVEWESNGQPENNYKTTPPMLDSDGSFFLYSKLTVDKSRWQQGNVFSCSVMHEALHNHYTQKSLSLSPG
light: DVQLVESGGGLVQPGGSLRLSCAASGFKITHYCTGWFRQAPGKEREFVSRITWGGDNTFYSNSVKGRFTISRDNSKNTVYLQMNSLRAEDTAVYYCAAGSTSTCTPLRVDYWGQGTLVTVSSGGGGSSYELTQPPSVSVSPGQTARITCSGEALPMQFAHWYQQRPGKAPVIVVYKDSERPSGVPERFSGSSSGTTATLTITGVQAEDEADYYCQSPDSTNTYEVFGGGTKLTVLSQPKAAPSVTLFPPSSEELQANKATLVCLISDFYPGAVTVAWKADSSPVKAGVETTTPSKQSNNKYAASSYLSLTPEQWKSHRSYSCQVTHEGSTVEKTVAPTECS
B3: FC5-H62(T33C/A104C)-12F4(LC) hIgG4P/G1 agly (bispecific antibody)
heavy: EVQLVESGGGLVEPGGSLRLSCAVSGFDFEKAWMSWVRQAPGQGLQWVARIKSTADGGTTSYAAPVEGRFIISRDDSRNMLYLQMNSLKTEDTAVYYCTSAHWGQGTLVTVSSASTKGPSVFPLAPCSRSTSESTAALGCLVKDYFPEPVTVSWNSGALTSGVHTFPAVLQSSGLYSLSSVVTVPSSSLGTKTYTCNVDHKPSNTKVDKRVESKYGPPCPPCPAPEFLGGPSVFLFPPKPKDTLMISRTPEVTCVVVDVSQEDPEVQFNWYVDGVEVHNAKTKPREEQFQSTYRVVSVLTVLHQDWLNGKEYKCKVSNKGLPSSIEKTISKAKGQPREPQVYTLPPSRDELTKNQVSLTCLVKGFYPSDIAVEWESNGQPENNYKTTPPVLDSDGSFFLYSKLTVDKSRWQQGNVFSCSVMHEALHNHYTQKSLSLSPG
light: DVQLVESGGGLVQPGGSLRLSCAASGFKITHYCTGWFRQAPGKEREFVSRITWGGDNTFYSNSVKGRFTISRDNSKNTVYLQMNSLRAEDTAVYYCAAGSTSTCTPLRVDYWGQGTLVTVSSGGGGSSYELTQPPSVSVSPGQTARITCSGEALPMQFAHWYQQRPGKAPVIVVYKDSERPSGVPERFSGSSSGTTATLTITGVQAEDEADYYCQSPDSTNTYEVFGGGTKLTVLSQPKAAPSVTLFPPSSEELQANKATLVCLISDFYPGAVTVAWKADSSPVKAGVETTTPSKQSNNKYAASSYLSLTPEQWKSHRSYSCQVTHEGSTVEKTVAPTECS
B4: FC5-H62(T33C/A104C)-12F4(LC) hIgG1 agly (N297Q) (bispecific antibody)
heavy: not shown
light: DVQLVESGGGLVQPGGSLRLSCAASGFKITHYCTGWFRQAPGKEREFVSRITWGGDNTFYSNSVKGRFTISRDNSKNTVYLQMNSLRAEDTAVYYCAAGSTSTCTPLRVDYWGQGTLVTVSSGGGGSSYELTQPPSVSVSPGQTARITCSGEALPMQFAHWYQQRPGKAPVIVVYKDSERPSGVPERFSGSSSGTTATLTITGVQAEDEADYYCQSPDSTNTYEVFGGGTKLTVLSQPKAAPSVTLFPPSSEELQANKATLVCLISDFYPGAVTVAWKADSSPVKAGVETTTPSKQSNNKYAASSYLSLTPEQWKSHRSYSCQVTHEGSTVEKTVAPTECS
notes: also called FC5-H62(T33C/A104C)-12F4 hIgG1 agly
B5: 12F4 hIgG1 (antibody, V domains shown)
VH: EVQLVESGGGLVEPGGSLRLSCAVSGFDFEKAWMSWVRQAPGQGLQWVARIKSTADGGTTSYAAPVEGRFIISRDDSRNMLYLQMNSLKTEDTAVYYCTSAHWGQGTLVTVSS
VL: SYELTQPPSVSVSPGQTARITCSGEALPMQFAHWYQQRPGKAPVIVVYKDSERPSGVPERFSGSSSGTTATLTITGVQAEDEADYYCQSPDSTNTYEVFGGGTKLTVLS
notes: also called anti-alpha synuclein (12F4); 12F4 without FC5 attached

Legend:
[1] = biological target: T1, Human alpha-synuclein (human, UniProt P37840 1-140); assay: direct binding ELISA, plates coated with human alpha-synuclein, anti-hIgG-HRP detection
Text: (§1) FIG. 46A is a graph showing alpha-synuclein direct binding ELISA. Human alpha-synuclein was coated on ELISA plates, treated with several dilutions of test reagents, and antibody binding at the indicated concentrations was detected with an HRP conjugated anti-hIgG secondary, measured by absorbance at 450 nm.

[2] = biological target: T1, Human alpha-synuclein; assay: direct binding ELISA, plates coated with human alpha-synuclein; 12F4 hIgG1 as reference
Text: as §1

Binder	binding result [1]	binding result [2]
B1	binds	
B2	binds	
B3	binds	
B4	binds	
B5		binds
